US20250170247A1, “CONJUGATES, AND USES THEREOF” (CITY UNIVERSITY OF HONG KONG, priority 2023, published 2025)
{5Hexynyl} = hexynyl group used for click conjugation

Legend:
[1] = biological target: T1, RHAU53 (Homo sapiens, UniProt Q9H2U1); settings: It is known; cited from earlier work
T1 construct: RHAU-specific motif containing 53 amino acids (RHAU53)
T1 sequence (Q9H2U1 53-105 limits assumed): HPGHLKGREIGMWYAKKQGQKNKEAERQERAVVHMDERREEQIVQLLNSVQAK

[2] = biological target: T2, RHAU53 peptide (53-aa RHAU/DHX36 G4-binding fragment) (UniProt Q9H2U1 Q9H2U1:53-105); assay: EMSA; 25 mM Tris-HCl pH 7.5, 150 mM KCl, 1 mM MgCl2, 37 C; settings: label: 3'-FAM
T2 chain: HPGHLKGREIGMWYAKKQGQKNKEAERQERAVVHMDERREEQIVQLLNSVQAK
Protocol: All oligonucleotides were heated for 5 minutes at 75° C. and cooled down for 10 minutes on ice. Different concentrations of RHAU53 peptide (0-2 μM) and 5-carboxyfluorescein (FAM)-labeled oligonucleotides or G4-compound conjugate (30 nM) were mixed in the Tris-HCl buffer (25 mM Tris-HCl, pH 7.5, 150 mM KCl and 1 mM MgCl₂). The mixture was incubated at 37° C. for 30 minutes, and 5% glycerol was then added to each sample. Bound and unbound RNAs were separated on 10% native polyacrylamide gel in 0.5× Tris/Borate/EDTA (TBE) at 4° C., 150 V for 30 minutes. The gel was scanned by scanner at 500 V and quantified by software.
To evaluate the target recognition ability of the rG4-PROTACs, the binding assay of FAM_rG4_A to RHAU53 peptide was performed by EMSA. RHAU53 peptide, the truncated DHX36 fragment, is the most important core protein domain required for rG4-RHAU interaction.

[3] = biological target: T3, DHX36 (RHAU), full-length (UniProt Q9H2U1 Q9H2U1:1-1008); assay: MST; 25 mM Tris-HCl pH 7.5, 150 mM KCl, 1 mM MgCl2, 37 C; settings: label: 3'-FAM; G4
T3 sequence: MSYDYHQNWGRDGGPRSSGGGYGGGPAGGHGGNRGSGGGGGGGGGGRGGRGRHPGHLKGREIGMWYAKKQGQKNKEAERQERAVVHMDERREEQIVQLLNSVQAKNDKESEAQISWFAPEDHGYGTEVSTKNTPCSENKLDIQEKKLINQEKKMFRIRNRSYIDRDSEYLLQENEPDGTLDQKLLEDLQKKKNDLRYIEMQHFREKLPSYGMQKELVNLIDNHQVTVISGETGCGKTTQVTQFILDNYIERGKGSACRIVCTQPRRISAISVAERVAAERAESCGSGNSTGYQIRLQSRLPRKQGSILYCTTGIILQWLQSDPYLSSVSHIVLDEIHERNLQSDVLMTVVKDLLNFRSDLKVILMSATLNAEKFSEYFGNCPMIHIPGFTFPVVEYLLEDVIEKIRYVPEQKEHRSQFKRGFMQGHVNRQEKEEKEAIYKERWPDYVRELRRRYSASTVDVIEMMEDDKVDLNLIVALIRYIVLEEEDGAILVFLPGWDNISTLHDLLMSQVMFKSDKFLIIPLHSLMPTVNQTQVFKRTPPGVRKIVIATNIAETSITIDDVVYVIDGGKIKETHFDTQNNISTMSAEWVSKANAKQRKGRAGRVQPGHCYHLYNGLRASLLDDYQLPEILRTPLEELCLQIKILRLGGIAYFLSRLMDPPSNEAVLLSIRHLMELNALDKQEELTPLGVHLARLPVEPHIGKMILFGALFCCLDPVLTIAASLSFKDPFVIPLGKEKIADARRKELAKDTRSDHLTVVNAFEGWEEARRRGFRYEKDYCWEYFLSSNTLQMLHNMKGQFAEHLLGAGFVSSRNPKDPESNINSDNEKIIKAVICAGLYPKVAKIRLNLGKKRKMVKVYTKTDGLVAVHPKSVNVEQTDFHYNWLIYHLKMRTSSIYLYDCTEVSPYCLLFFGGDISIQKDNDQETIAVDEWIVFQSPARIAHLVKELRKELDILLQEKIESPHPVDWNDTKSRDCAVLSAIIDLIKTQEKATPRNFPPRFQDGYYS
Protocol: Before the reaction, FAM labeled G4-compound conjugate was heated at 75° C. for 5 minutes and cooled down on the ice for 10 minutes. DHX36 protein was serially diluted to 16 samples from the highest concentration of […]. FAM-labeled oligonucleotides (40 nM) were added to each sample and incubated in Tris-HCl buffer (25 mM Tris-HCl, pH 7.5, 150 mM KCl, and 1 mM MgCl₂) at 37° C. for 30 minutes. Binding affinity was carried out on capillary tubes using an MST machine. The curve fitting and Kd determination were obtained from software.
Full-length DHX36 protein was then used to further confirm the recognition of the present rG4-PROTAC to G4BP via MST binding assay. […] As described above, the affinity of A_dG4_FAM to RHAU53 was nearly 4.7 times higher (Kd=[…]) than that of FAM_rG4_A (FIG. 2B). The interaction between A_dG4_FAM and DHX36 protein quantified by MST (Kd=303±55; FIG. 2D) confirmed the result, indicating a relatively weaker interaction with DHX36.

[4] = biological target: T3, DHX36 (RHAU), full-length; assay: EMSA; strong binding, data not shown; settings: G4

hTERC rG4: human telomerase RNA component rG4, 5′-GGGUUGCGGAGGGUGGGCCU-3′ (SEQ ID NO: 1), the warhead targeting G4BP (RNA, 5' {5Hexynyl}, backbone not given here; further chemistry not fully specified)
affinity for RHAU53 [1]: nanomolar affinity

GGGUUGCGGAGGGUGGGCCU (ssRNA, 5'-hexynyl clicked to azide-modified AHPC) [FAM_rG4_A (hTERC rG4 WT-AHPC conjugate)]
Kd [2]: 67.4 nM
Kd [3]: 79.7 nM

CGGGGCGGGUGGGGAGGGGU (ssRNA) [APP 3'UTR rG4]
binding result [4]: binds
